Measured values as given in article PMC7450122.

The substances below were run against GST-p65, purified recombinant (UniProt Q04206) (assay: alanine-scanning peptide array probed with GST-p65, anti-GST immunoblot).
UniProt Q04206, sequence (Q04206 whole entry, looked up): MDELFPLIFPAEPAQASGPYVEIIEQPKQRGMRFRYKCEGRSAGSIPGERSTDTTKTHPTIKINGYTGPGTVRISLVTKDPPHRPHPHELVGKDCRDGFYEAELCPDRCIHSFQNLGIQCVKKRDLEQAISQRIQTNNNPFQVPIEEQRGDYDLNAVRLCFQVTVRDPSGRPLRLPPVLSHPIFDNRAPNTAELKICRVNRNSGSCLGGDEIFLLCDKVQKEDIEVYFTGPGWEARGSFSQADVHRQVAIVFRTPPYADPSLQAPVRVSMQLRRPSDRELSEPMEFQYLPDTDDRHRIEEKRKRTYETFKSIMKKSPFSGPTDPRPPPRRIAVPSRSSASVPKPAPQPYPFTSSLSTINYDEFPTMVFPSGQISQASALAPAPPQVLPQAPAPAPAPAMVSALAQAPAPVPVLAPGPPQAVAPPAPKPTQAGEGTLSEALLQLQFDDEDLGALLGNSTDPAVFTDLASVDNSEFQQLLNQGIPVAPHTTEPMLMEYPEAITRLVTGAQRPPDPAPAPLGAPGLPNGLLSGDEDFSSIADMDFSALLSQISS

Row | Substance | percent of parent (% of parent peptide)
1 | USP7 peptide C30 (897-914, …) F903A | < 60
2 | USP7 peptide C13 (829-846, …) Y845A | < 60
3 | USP7 peptide C25 (877-894, …) F888A | < 60
4 | USP7 peptide C30 (897-914, …) L899A | < 60
5 | USP7 peptide A23 (629-646, …) R634A | < 60
6 | USP7 peptide C13 (829-846, …) F839A | < 60
7 | USP7 peptide C13 (829-846, …) M835A | < 60
8 | USP7 peptide C13 (829-846, …) D833A | < 60
9 | USP7 peptide C25 (877-894, …) D887A | < 60
10 | USP7 peptide C30 (897-914, …) K914A | < 60
11 | USP7 peptide A23 (629-646, …) K633A | < 60
12 | USP7 peptide C30 (897-914, …) E905A | < 60
13 | USP7 peptide C25 (877-894, …) F894A | < 60
14 | USP7 peptide C20 (857-874, …) Q872A | < 60
